Experimental data published in patent US20190077860A1 (EISAI R AND D MANAGEMENT, published 2019).
Where a chain is given by its changes, count along the chain named. Numbers in names are those of the source. Each block holds one binder with its values, some of them ahead of it.

Key:
Assay in all cases: ELISA
[1] = molecular target: T1, human EphA2 extracellular region-SEAP-His protein (human, UniProt P29317 24-537)
T1 construct: extracellular domain; also called hEphA2-SEAP-His

[2] = molecular target: T2, human EphB1 extracellular region-SEAP-His protein (human, UniProt P54762 18-540)
T2 construct: extracellular domain; also called hEphB1-SEAP-His
T2 sequence (looked up): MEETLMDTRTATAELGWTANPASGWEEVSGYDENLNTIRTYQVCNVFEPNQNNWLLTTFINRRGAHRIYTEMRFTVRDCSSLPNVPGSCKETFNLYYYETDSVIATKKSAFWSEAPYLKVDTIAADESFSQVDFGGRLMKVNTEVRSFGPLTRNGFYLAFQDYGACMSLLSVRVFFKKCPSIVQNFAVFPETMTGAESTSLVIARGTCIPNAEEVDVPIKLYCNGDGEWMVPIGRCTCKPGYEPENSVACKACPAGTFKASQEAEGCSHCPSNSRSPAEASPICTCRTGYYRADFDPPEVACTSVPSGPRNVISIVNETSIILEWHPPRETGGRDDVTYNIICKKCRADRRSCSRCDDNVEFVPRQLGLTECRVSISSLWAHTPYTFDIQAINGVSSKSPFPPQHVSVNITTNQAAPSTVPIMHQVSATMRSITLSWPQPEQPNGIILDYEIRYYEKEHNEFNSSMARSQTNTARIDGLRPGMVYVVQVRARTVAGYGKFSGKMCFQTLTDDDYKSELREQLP

[3] = molecular target: T3, human EphA8 extracellular region-SEAP-His protein (human, UniProt P29322 28-542)
T3 construct: extracellular domain; also called hEphA8-SEAP-His
T3 sequence (looked up): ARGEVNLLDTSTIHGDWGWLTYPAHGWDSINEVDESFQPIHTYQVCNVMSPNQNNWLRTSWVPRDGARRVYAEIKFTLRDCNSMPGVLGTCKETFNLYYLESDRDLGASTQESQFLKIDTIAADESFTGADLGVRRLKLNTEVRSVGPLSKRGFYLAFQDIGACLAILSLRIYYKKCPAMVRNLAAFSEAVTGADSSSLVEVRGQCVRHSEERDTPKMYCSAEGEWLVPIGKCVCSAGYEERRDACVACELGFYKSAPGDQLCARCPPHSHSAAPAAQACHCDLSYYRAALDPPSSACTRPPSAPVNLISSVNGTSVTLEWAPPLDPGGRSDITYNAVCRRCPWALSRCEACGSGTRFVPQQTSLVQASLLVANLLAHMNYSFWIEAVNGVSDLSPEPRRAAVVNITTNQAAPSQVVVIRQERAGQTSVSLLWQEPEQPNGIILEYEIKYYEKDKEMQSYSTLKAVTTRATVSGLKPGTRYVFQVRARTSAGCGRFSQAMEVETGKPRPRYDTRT

[4] = molecular target: T4, human EphA1 extracellular region-SEAP-His protein (human, UniProt P21709 26-547)
T4 construct: extracellular domain; also called hEphA1-SEAP-His
T4 sequence (looked up): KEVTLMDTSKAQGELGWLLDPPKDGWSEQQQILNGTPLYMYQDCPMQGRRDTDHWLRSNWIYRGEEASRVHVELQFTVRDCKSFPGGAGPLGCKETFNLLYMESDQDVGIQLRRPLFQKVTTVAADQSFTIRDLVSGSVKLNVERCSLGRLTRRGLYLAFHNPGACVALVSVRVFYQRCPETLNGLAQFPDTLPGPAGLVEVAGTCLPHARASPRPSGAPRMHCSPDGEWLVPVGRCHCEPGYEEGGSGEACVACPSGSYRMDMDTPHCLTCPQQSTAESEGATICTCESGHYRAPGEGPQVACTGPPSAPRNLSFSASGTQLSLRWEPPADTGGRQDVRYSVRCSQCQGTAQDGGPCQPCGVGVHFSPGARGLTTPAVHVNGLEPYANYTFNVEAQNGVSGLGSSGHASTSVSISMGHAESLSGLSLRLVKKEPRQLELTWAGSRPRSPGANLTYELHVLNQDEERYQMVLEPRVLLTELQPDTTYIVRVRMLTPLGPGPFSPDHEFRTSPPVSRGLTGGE

[5] = molecular target: T5, human EphA3 extracellular region-SEAP-His protein (human, UniProt P29320 21-541)
T5 construct: extracellular domain; also called hEphA3-SEAP-His
T5 sequence (looked up): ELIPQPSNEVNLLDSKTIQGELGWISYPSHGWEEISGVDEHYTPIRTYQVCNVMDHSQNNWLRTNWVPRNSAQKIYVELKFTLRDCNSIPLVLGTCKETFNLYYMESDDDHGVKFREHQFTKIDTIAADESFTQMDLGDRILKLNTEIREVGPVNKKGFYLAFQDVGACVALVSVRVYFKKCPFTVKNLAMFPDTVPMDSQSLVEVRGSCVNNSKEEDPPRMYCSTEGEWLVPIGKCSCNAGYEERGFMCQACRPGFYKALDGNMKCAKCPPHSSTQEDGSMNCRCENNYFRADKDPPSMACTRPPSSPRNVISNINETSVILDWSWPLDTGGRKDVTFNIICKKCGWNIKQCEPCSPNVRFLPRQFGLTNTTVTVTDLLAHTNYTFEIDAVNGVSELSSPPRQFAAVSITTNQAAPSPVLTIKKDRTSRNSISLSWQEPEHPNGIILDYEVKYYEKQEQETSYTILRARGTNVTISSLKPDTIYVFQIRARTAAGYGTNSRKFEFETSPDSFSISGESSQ

[6] = molecular target: T6, human EphA4 extracellular region-SEAP-His protein (human, UniProt P54764 20-547)
T6 construct: also called hEphA4-SEAP-His
T6 sequence (P54764 20-547): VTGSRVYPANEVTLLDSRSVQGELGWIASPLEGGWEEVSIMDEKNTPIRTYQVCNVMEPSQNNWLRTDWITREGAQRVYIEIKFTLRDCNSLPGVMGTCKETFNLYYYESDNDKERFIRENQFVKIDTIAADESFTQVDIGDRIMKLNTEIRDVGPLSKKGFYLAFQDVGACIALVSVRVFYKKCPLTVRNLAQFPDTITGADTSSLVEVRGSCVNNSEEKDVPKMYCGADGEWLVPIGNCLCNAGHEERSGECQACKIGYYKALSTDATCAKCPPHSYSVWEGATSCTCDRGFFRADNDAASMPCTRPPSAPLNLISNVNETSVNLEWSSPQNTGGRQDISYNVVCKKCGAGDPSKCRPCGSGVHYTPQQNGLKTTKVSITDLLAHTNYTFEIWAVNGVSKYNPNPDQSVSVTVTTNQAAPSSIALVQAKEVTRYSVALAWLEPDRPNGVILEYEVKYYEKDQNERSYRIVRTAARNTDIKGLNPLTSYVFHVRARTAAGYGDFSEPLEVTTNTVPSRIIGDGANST

T1 sequence (P29317 24-537): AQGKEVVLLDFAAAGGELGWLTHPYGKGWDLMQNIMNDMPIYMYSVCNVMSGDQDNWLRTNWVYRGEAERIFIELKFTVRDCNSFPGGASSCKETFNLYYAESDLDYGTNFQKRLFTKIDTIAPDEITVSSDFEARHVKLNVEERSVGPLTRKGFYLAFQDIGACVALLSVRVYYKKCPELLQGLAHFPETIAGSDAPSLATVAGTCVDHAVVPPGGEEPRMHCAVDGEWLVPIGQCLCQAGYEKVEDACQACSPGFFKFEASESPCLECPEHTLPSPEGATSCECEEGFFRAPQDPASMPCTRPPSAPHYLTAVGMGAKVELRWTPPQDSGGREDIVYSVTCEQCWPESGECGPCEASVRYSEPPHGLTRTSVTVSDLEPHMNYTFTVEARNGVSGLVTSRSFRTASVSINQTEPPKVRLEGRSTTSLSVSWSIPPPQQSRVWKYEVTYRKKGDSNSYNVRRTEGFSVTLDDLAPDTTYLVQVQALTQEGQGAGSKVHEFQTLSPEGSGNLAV

B1: humanized antibody No. 76 (antibody, human IgG1, kappa)
heavy: QVQLVQSGSELKKPGASVKVSCKASGYTFTDYSMHWVRQAPGQGLKWMGWINTETGEPTYAQGFTGRFVFSLDTSVSTAYLQISSLKAEDTAVYYCARIPLYYYGSRYWYFDVWGQGTTVTVSSASTKGPSVFPLAPSSKSTSGGTAALGCLVKDYFPEPVTVSWNSGALTSGVHTFPAVLQSSGLYSLSSVVTVPSSSLGTQTYICNVNHKPSNTKVDKRVEPKSCDKTHTCPPCPAPPAAAPSVFLFPPKPKDTLMISRTPEVTCVVVDVSHEDPEVQFNWYVDGVEVHNAKTKPREEQFNSTFRVVSVLTVVHQDWLNGKEYKCKVSNKGLPAPIEKTISKTKGQPREPQVYTLPPSREEMTKNQVSLTCLVKGFYPSDIAVEWESNGQPENNYKTTPPMLDSDGSFFLYSKLTVDKSRWQQGNVFSCSVMHEALHNHYTQKSLSLSPG
light: DIQMTQSPSSLSASVGDRVTITCRASENIYRNLAWYQQKPGKAPKLLVYAATNLADGVPSRFSGSGSGTDYTLTISSLQPEDFATYYCQHFWGTPWTFGQGTKVEIKRTVAAPSVFIFPPSDEQLKSGTASVVCLLNNFYPREAKVQWKVDNALQSGNSQESVTEQDSKDSTYSLSSTLTLSKADYEKHKVYACEVTHQGLSSPVTKSFNRGEC
notes: human Ig kappa; also called L1-4/HA2
A450 as % of hEphA4-SEAP-His [1]: 4.8%
A450 as % of hEphA4-SEAP-His [2]: 4.9%
A450 as % of hEphA4-SEAP-His [3]: 5.5%
A450 as % of hEphA4-SEAP-His [4]: 5.1%
A450 as % of hEphA4-SEAP-His [5]: 4.9%
A450 as % of hEphA4-SEAP-His [6]: 100%

B3: humanized antibody No. 75 (antibody, human IgG1, kappa)
heavy: B1 heavy with K46E
light: B1 light
notes: constant region: human IgG1 CH1 and hinge, human IgG2 CH2 and CH3 with V234A, G237A, no C-terminal Lys; human Ig kappa; also called L1-4/HA1
A450 as % of hEphA4-SEAP-His [1]: 4.6%
A450 as % of hEphA4-SEAP-His [2]: 4.4%
A450 as % of hEphA4-SEAP-His [3]: 4.8%
A450 as % of hEphA4-SEAP-His [4]: 4.7%
A450 as % of hEphA4-SEAP-His [5]: 4.8%
A450 as % of hEphA4-SEAP-His [6]: 100%

B4: humanized antibody No. 86 (antibody, human IgG1, kappa)
heavy: B1 heavy with V2I, Q62D, G63D, T65K
light: B1 light with V48L, P80S
notes: human Ig kappa; also called L1-5/HK4
A450 as % of hEphA4-SEAP-His [1]: 5.7%
A450 as % of hEphA4-SEAP-His [2]: 5.7%
A450 as % of hEphA4-SEAP-His [3]: 5.7%
A450 as % of hEphA4-SEAP-His [4]: 5.9%
A450 as % of hEphA4-SEAP-His [5]: 5.8%
A450 as % of hEphA4-SEAP-His [6]: 100%

B6: humanized antibody No. 87 (antibody, human IgG1, kappa)
heavy: B1 heavy with K46E
light: B1 light with K45Q, V48L
notes: human Ig kappa; also called L1-6/HA1
A450 as % of hEphA4-SEAP-His [1]: 5.4%
A450 as % of hEphA4-SEAP-His [2]: 5.3%
A450 as % of hEphA4-SEAP-His [3]: 5.7%
A450 as % of hEphA4-SEAP-His [4]: 5.3%
A450 as % of hEphA4-SEAP-His [5]: 5.5%
A450 as % of hEphA4-SEAP-His [6]: 100%

B7: humanized antibody No. 81 (antibody, human IgG1, kappa)
heavy: B1 heavy with K46E
light: B1 light with V48L, P80S
notes: human Ig kappa; also called L1-5/HA1
A450 as % of hEphA4-SEAP-His [1]: 4.8%
A450 as % of hEphA4-SEAP-His [2]: 4.9%
A450 as % of hEphA4-SEAP-His [3]: 5.2%
A450 as % of hEphA4-SEAP-His [4]: 4.4%
A450 as % of hEphA4-SEAP-His [5]: 5%
A450 as % of hEphA4-SEAP-His [6]: 100%

The remaining lines, values ahead:

A450 as % of hEphA4-SEAP-His [1]: 5.8%
A450 as % of hEphA4-SEAP-His [2]: 6.1%
A450 as % of hEphA4-SEAP-His [3]: 6.2%
A450 as % of hEphA4-SEAP-His [4]: 5.8%
A450 as % of hEphA4-SEAP-His [5]: 6%
A450 as % of hEphA4-SEAP-His [6]: 100%
B2: humanized antibody No. 88 (antibody, human IgG1, kappa)
heavy: B1 heavy
light: B1 light with K45Q, V48L
notes: human Ig kappa; also called L1-6/HA2

A450 as % of hEphA4-SEAP-His [1]: 5.5%
A450 as % of hEphA4-SEAP-His [2]: 5.6%
A450 as % of hEphA4-SEAP-His [3]: 5.5%
A450 as % of hEphA4-SEAP-His [4]: 5.7%
A450 as % of hEphA4-SEAP-His [5]: 5.4%
A450 as % of hEphA4-SEAP-His [6]: 100%
B5: humanized antibody No. 69 (antibody, human IgG1, kappa)
heavy: B1 heavy with V2I, Q62D, G63D, T65K
light: B1 light
notes: human Ig kappa; also called L1-4/HK4
